Reference: patent US20060029947A1 (University of Texas, published 2006)

Biological target: Bacillus anthracis protective antigen (PA) (Bacillus anthracis, UniProt P13423 30-764)
Sequence (P13423 30-764 limits assumed): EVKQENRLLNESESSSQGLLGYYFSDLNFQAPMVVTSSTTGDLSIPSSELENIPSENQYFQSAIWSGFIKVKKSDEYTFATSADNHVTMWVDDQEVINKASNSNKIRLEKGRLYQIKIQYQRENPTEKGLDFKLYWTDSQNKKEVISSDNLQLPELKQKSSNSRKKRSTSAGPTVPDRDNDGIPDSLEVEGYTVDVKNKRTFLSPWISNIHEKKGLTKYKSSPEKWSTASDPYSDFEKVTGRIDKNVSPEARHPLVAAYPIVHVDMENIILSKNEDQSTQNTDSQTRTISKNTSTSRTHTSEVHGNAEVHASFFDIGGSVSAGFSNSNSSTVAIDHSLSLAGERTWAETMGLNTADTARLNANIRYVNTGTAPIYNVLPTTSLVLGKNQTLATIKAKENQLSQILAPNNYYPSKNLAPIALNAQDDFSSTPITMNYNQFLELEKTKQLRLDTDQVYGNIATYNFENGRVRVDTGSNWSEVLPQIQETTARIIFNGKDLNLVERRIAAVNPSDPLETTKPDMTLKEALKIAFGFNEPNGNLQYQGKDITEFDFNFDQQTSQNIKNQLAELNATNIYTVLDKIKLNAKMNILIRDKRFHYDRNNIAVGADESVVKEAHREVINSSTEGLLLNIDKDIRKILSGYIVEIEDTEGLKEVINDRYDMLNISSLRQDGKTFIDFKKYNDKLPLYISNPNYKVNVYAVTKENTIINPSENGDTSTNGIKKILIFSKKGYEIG

B1: M18 with the Q55L substitution, scAb (scFv)
chain: DIQMTQTTSSLSASLGDRVTVSCRASQDIRNYLNWYQQKPDGTVKFLIYYTSRLLPGVPSRFSGSGSGTDYSLTINNLEQEDIGTYFCQQGNTPPWTFGGGTKLEIKRGGGGSDGGGSGGGGSGGGGSEVQLQQSGPELVKPGASVKISCKDSGYAFNSSWMNWVKQRPGQGLEWIGRIYPGDGDSNYNGKFEGKAILTADKSSSTAYMQLSSLTSVDSAVYFCARSGLLRYAMDYWGQGTSVTVSS
Kd: 0.021 nM
koff: 2.4e-05 s⁻¹
kon: 1.1e+06 M⁻¹ s⁻¹
